In paper PMC8484547, “The NAM/ATAF1/2/CUC2 transcription factor PpNAC.A59 enhances PpERF.A16 expression to promote ethylene biosynthesis during peach fruit ripening”:

B1: PpendoPGM promoter probe(s) (dsDNA)
DNA 1: CGTAAGGTCATTACGGCGCCGTTTCCCTTTTTAATTGGCG
DNA 2: CGCCAATTAAAAAGGGAAACGGCGCCGTAATGACCTTACG
B2: PpACS1 promoter probe (dsDNA)
DNA 1: ACACCATCTCAACCATTGCCCCCACAATTGATAGCTTGC
DNA 2: GCAAGCTATCAATTGTGGGGGCAATGGTTGAGATGGTGT
B3: PpACO1 promoter probe(s) (dsDNA)
DNA 1: AGTCAAAAGCTTTCGGCGTCAAGATTCCATTG
DNA 2: CAATGGAATCTTGACGCCGAAAGCTTTTGACT

Target: PpERF.A16::HIS (Prunus persica? (peach), UniProt A0A251PUJ2 1-382)
Assay: BLI; response rises with protein concentration; BLI: PBS (1.4 mM KH2PO4, 2.7 mM KCl, 4.3 mM Na2HPO4, 137 mM NaCl, 0.02% Tween-20, pH 7.2), temperature not stated; EMSA: 5 mM MgCl2, 2.5% glycerol, 0.05% NP-40, 1 mg (so in the source) poly(dI-dC), 200 nM probe, 1 ug protein in 20 ul, 20 min, room temperature
Settings: protein: recombinant; tags: HIS, trigger factor fusion (pCold-TF); label: biotin

Chain of PpERF.A16::HIS (A0A251PUJ2 entry or part of it): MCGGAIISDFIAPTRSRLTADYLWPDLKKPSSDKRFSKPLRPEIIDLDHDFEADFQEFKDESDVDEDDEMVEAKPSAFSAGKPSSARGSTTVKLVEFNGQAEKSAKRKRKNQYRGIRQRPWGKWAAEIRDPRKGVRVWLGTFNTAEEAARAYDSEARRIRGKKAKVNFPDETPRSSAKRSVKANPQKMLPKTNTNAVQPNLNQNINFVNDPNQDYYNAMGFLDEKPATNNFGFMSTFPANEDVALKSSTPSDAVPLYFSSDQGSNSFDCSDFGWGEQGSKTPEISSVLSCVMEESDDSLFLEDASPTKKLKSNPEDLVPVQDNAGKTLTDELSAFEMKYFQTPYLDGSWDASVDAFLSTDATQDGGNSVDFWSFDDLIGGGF

Binding result, binds:
B1
B2
B3
